Source: patent US20230093155A1
Several values for one entry are separate records, joined by “and”; a condition that tells them apart may be missing. Equal values may be shown once.

target: IL-2Rβ and γc complex expressed on the lymphocytes (human) (UniProt P14784); experiment: cell-based or functional assay
Sequence (P14784 27-551, chain 1 of 2): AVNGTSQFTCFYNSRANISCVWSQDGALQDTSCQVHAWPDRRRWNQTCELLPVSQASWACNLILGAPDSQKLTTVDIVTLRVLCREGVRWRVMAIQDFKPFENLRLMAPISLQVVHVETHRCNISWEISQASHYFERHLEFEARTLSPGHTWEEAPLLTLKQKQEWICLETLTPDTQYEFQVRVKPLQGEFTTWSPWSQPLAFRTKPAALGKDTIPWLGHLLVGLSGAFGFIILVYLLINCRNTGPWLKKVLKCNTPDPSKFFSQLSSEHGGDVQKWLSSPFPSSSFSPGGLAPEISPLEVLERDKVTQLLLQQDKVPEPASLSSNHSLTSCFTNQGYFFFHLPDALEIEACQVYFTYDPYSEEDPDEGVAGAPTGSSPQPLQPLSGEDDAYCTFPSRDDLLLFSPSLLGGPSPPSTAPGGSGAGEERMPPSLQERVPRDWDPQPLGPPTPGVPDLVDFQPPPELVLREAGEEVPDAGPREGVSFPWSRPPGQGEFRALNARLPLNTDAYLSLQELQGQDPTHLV
Sequence (P31785 23-369, chain 2 of 2, further chain): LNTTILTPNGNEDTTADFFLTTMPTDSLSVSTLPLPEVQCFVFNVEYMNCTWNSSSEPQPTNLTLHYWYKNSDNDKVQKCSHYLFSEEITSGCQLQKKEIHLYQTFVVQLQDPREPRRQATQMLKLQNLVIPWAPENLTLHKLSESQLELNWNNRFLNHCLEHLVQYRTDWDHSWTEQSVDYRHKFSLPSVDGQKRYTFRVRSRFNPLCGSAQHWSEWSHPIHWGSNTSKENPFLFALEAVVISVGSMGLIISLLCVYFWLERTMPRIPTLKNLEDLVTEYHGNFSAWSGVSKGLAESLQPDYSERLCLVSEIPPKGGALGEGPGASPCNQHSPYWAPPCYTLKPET

Which results are given for “P-0313 (IL-15 S58D/IL-15Rα Fc fusion) (from UniProt Q13261 31-107)”?
CD8 T cell proliferation EC50 (pM): 44 pM and 32 pM; Fold change vs. P-0313: 1 fold

What does the source list for “P-0356 (IL-15 I68F/IL-15Rα Fc fusion) (from UniProt Q13261 31-107)”?
CD8 T cell proliferation EC50 (pM): 1250 pM; Fold change vs. P-0313: 29 fold

What does the source list for “P-0357 (IL-15 I68D/IL-15Rα Fc fusion) (from UniProt Q13261 31-107)”?
CD8 T cell proliferation EC50 (pM): 296000 pM; Fold change vs. P-0313: 6730 fold

For “P-0358 (IL-15 I68H/IL-15Rα Fc fusion) (from UniProt Q13261 31-107)”, which CD8 T cell proliferation EC50 (pM) is on record?
Its CD8 T cell proliferation EC50 (pM) is 419 pM.

And the Fold change vs. P-0313?
The Fold change vs. P-0313 was 9.5 fold.

How did the CD8 T cell proliferation EC50 (pM) turn out when “P-0736 (IL-15 I68Q/IL-15Rα Fc fusion) (from UniProt Q13261 31-107)” was run?
The CD8 T cell proliferation EC50 (pM) was 4470 pM.

And the Fold change vs. P-0313?
The Fold change vs. P-0313 was 102 fold.

“P-0737 (IL-15 I68G/IL-15Rα Fc fusion) (from UniProt Q13261 31-107)” was tested. Which CD8 T cell proliferation EC50 (pM) did it give?
Its CD8 T cell proliferation EC50 (pM) is 14500 pM.

And the Fold change vs. P-0313?
Its Fold change vs. P-0313 is 330 fold.

With “P-0738 (IL-15 I68K/IL-15Rα Fc fusion) (from UniProt Q13261 31-107)” as the substance, how does the CD8 T cell proliferation EC50 (pM) read?
Its CD8 T cell proliferation EC50 (pM) is 24800 pM.

And the Fold change vs. P-0313?
Its Fold change vs. P-0313 is 564 fold.

What does the source list for “P-0764 (IL-15 Q108S/IL-15Rα Fc fusion protein) (from UniProt P0DOX5 223-448; Q13261 31-107)”?
CD8 T cell proliferation EC50 (pM): 62100 pM; Fold change vs. P-0313: 1960 fold

What does the source list for “P-0768 (IL-15 V63A/I68G/IL-15Rα Fc fusion) (from UniProt Q13261 31-107)”?
CD8 T cell proliferation EC50 (pM): 48000 pM; Fold change vs. P-0313: 1510 fold

What does the source list for “P-0769 (IL-15 V63K/IL-15Rα Fc fusion) (from UniProt Q13261 31-107)”?
CD8 T cell proliferation EC50 (pM): 360 pM; Fold change vs. P-0313: 11.3 fold

Which results are given for “P-0770 (IL-15 V63R/IL-15Rα Fc fusion) (from UniProt Q13261 31-107)”?
CD8 T cell proliferation EC50 (pM): 184 pM; Fold change vs. P-0313: 5.8 fold

For “P-0771 (IL-15 V63A/IL-15Rα Fc fusion) (from UniProt Q13261 31-107)”, which CD8 T cell proliferation EC50 (pM) is on record?
The CD8 T cell proliferation EC50 (pM) was 132 pM.

And the Fold change vs. P-0313?
The Fold change vs. P-0313 was 4.2 fold.

Which results are given for “P-0772 (IL-15 V63A/I68Q/IL-15Rα Fc fusion) (from UniProt Q13261 31-107)”?
CD8 T cell proliferation EC50 (pM): 15400 pM; Fold change vs. P-0313: 485 fold

Which CD8 T cell proliferation EC50 (pM) does the source give for “P-0773 (IL-15 V63A/I68H variant/IL-15RαSushi Fc fusion protein) (from UniProt Q13261 31-107)” here?
The CD8 T cell proliferation EC50 (pM) was 1420 pM.

And the Fold change vs. P-0313?
The Fold change vs. P-0313 was 45 fold.

Which results are given for “P-0793 (IL-15 Q108A/IL-15Rα Fc fusion) (from UniProt P0DOX5 223-448; Q13261 31-107)”?
CD8 T cell proliferation EC50 (pM): 68800 pM; Fold change vs. P-0313: 2170 fold
